According to the supplement of paper PMC9112550, “Optimization of the antimicrobial peptide Bac7 by deep mutational scanning” (BMC Biology, 2022):

System: Escherichia coli TOP10
Assay: shrunken log2 fold change of peptide-encoding DNA abundance (4.5 h post-induction vs induction); higher = less antimicrobial activity (less host growth inhibition)
Conditions: time post-induction: 4.5 h; library: site-saturation at positions 5, 18, 19, 20
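Note: peptides expressed intracellularly from a pBAD plasmid library in pooled LB shake-flask culture, induced with 0.3% L-arabinose, DNA abundance read by NGS, three biological replicates, DESeq2 with apeglm shrinkage.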

| Sequence | shrunken log2 fold change |
| --- | --- |
| RRIRWRPPRLPRPRPRPQTEPRP | 0.0468 |
| RRIRWRPPRLPRPRPRPQWAPRP | 0.829 |
| RRIRWRPPRLPRPRPRPQYAPRP | -0.0905 |
| RRIRWRPPRLPRPRPRPRADPRP | 0.667 |
| RRIRWRPPRLPRPRPRPRDNPRP | 0.0559 |
| RRIRWRPPRLPRPRPRPRDWPRP | 0.958 |
| RRIRWRPPRLPRPRPRPREDPRP | 0.532 |
| RRIRWRPPRLPRPRPRPRFKPRP | 0.0187 |
| RRIRWRPPRLPRPRPRPRFNPRP | 0.0235 |
| RRIRWRPPRLPRPRPRPRHGPRP | -0.192 |
| RRIRWRPPRLPRPRPRPRHRPRP | 0.138 |
| RRIRWRPPRLPRPRPRPRHWPRP | 0.0523 |
| RRIRWRPPRLPRPRPRPRKIPRP | 0.491 |
| RRIRWRPPRLPRPRPRPRKNPRP | 0.0168 |
| RRIRWRPPRLPRPRPRPRMGPRP | 0.357 |
| RRIRWRPPRLPRPRPRPRNTPRP | -0.0542 |
| RRIRWRPPRLPRPRPRPRPYPRP | 0.0357 |
| RRIRWRPPRLPRPRPRPRRHPRP | 0.559 |
| RRIRWRPPRLPRPRPRPRSPPRP | 0.779 |
| RRIRWRPPRLPRPRPRPRTEPRP | 0.225 |
| RRIRWRPPRLPRPRPRPRTQPRP | 0.276 |
| RRIRWRPPRLPRPRPRPRVCPRP | 0.347 |
| RRIRWRPPRLPRPRPRPRVNPRP | 0.478 |
| RRIRWRPPRLPRPRPRPSAMPRP | 0.252 |
| RRIRWRPPRLPRPRPRPSCKPRP | -0.183 |

| Sequence | shrunken log2 fold change |
| --- | --- |
| RRIRWRPPRLPRPRPRPSCTPRP | -0.11 |
| RRIRWRPPRLPRPRPRPSDAPRP | 0.191 |
| RRIRWRPPRLPRPRPRPSDQPRP | 0.138 |
| RRIRWRPPRLPRPRPRPSEDPRP | 0.145 |
| RRIRWRPPRLPRPRPRPSEVPRP | -0.0251 |
| RRIRWRPPRLPRPRPRPSFAPRP | 0.28 |
| RRIRWRPPRLPRPRPRPSGIPRP | 0.146 |
| RRIRWRPPRLPRPRPRPSHDPRP | 0.023 |
| RRIRWRPPRLPRPRPRPSIDPRP | 0.452 |
| RRIRWRPPRLPRPRPRPSIIPRP | -0.31 |
| RRIRWRPPRLPRPRPRPSKFPRP | -0.0435 |
| RRIRWRPPRLPRPRPRPSKIPRP | -0.152 |
| RRIRWRPPRLPRPRPRPSLMPRP | 0.122 |
| RRIRWRPPRLPRPRPRPSMCPRP | -0.16 |
| RRIRWRPPRLPRPRPRPSNIPRP | -0.699 |
| RRIRWRPPRLPRPRPRPSPTPRP | 0.0554 |
| RRIRWRPPRLPRPRPRPSPYPRP | -0.25 |
| RRIRWRPPRLPRPRPRPSQKPRP | -0.0621 |
| RRIRWRPPRLPRPRPRPSRCPRP | 0.0613 |
| RRIRWRPPRLPRPRPRPSVLPRP | -0.225 |
| RRIRWRPPRLPRPRPRPSVYPRP | 0.0378 |
| RRIRWRPPRLPRPRPRPSWCPRP | -0.0416 |
| RRIRWRPPRLPRPRPRPTAWPRP | 2 |
| RRIRWRPPRLPRPRPRPTCLPRP | 0.324 |
| RRIRWRPPRLPRPRPRPTCVPRP | 0.145 |

| Sequence | shrunken log2 fold change |
| --- | --- |
| RRIRWRPPRLPRPRPRPTDKPRP | -0.0481 |
| RRIRWRPPRLPRPRPRPTDQPRP | 0.203 |
| RRIRWRPPRLPRPRPRPTEFPRP | -0.0793 |
| RRIRWRPPRLPRPRPRPTETPRP | 0.0028 |
| RRIRWRPPRLPRPRPRPTFVPRP | -0.183 |
| RRIRWRPPRLPRPRPRPTFWPRP | 0.617 |
| RRIRWRPPRLPRPRPRPTGFPRP | 0.645 |
| RRIRWRPPRLPRPRPRPTGPPRP | 0.217 |
| RRIRWRPPRLPRPRPRPTGQPRP | -0.0283 |
| RRIRWRPPRLPRPRPRPTIAPRP | 0.367 |
| RRIRWRPPRLPRPRPRPTIRPRP | -0.343 |
| RRIRWRPPRLPRPRPRPTKTPRP | 0.0481 |
| RRIRWRPPRLPRPRPRPTMFPRP | 0.0589 |
| RRIRWRPPRLPRPRPRPTNCPRP | -0.0666 |
| RRIRWRPPRLPRPRPRPTNTPRP | -0.284 |
| RRIRWRPPRLPRPRPRPTNYPRP | -0.347 |
| RRIRWRPPRLPRPRPRPTPAPRP | 0.584 |
| RRIRWRPPRLPRPRPRPTPRPRP | 0.851 |
| RRIRWRPPRLPRPRPRPTQDPRP | 0.755 |
| RRIRWRPPRLPRPRPRPTRKPRP | -0.0294 |
| RRIRWRPPRLPRPRPRPTRPPRP | 0.855 |
| RRIRWRPPRLPRPRPRPTSGPRP | 0.593 |
| RRIRWRPPRLPRPRPRPTSHPRP | -0.26 |
| RRIRWRPPRLPRPRPRPTSQPRP | 0.229 |
| RRIRWRPPRLPRPRPRPTSWPRP | 0.249 |

| Sequence | shrunken log2 fold change |
| --- | --- |
| RRIRWRPPRLPRPRPRPTSYPRP | -0.103 |
| RRIRWRPPRLPRPRPRPTVTPRP | 0.0889 |
| RRIRWRPPRLPRPRPRPTWFPRP | -0.0378 |
| RRIRWRPPRLPRPRPRPTYYPRP | -0.463 |
| RRIRWRPPRLPRPRPRPVDKPRP | -0.0524 |
| RRIRWRPPRLPRPRPRPVEHPRP | -0.287 |
| RRIRWRPPRLPRPRPRPVFFPRP | 0.238 |
| RRIRWRPPRLPRPRPRPVFPPRP | 0.268 |
| RRIRWRPPRLPRPRPRPVGFPRP | 0.558 |
| RRIRWRPPRLPRPRPRPVGHPRP | 0.243 |
| RRIRWRPPRLPRPRPRPVGNPRP | 0.0858 |
| RRIRWRPPRLPRPRPRPVHHPRP | -0.0507 |
| RRIRWRPPRLPRPRPRPVIKPRP | -0.226 |
| RRIRWRPPRLPRPRPRPVIQPRP | -0.2 |
| RRIRWRPPRLPRPRPRPVKAPRP | 0.284 |
| RRIRWRPPRLPRPRPRPVKIPRP | -0.142 |
| RRIRWRPPRLPRPRPRPVKSPRP | 0.0342 |
| RRIRWRPPRLPRPRPRPVMHPRP | -0.119 |
| RRIRWRPPRLPRPRPRPVNNPRP | 0.018 |
| RRIRWRPPRLPRPRPRPVQFPRP | 0.0316 |
| RRIRWRPPRLPRPRPRPVQMPRP | 0.159 |
| RRIRWRPPRLPRPRPRPVRFPRP | 0.0694 |
| RRIRWRPPRLPRPRPRPVSDPRP | 0.191 |
| RRIRWRPPRLPRPRPRPVSEPRP | 0.0771 |
| RRIRWRPPRLPRPRPRPVSLPRP | 0.15 |

| Sequence | shrunken log2 fold change |
| --- | --- |
| RRIRWRPPRLPRPRPRPVWIPRP | 0.142 |
| RRIRWRPPRLPRPRPRPVWNPRP | -0.232 |
| RRIRWRPPRLPRPRPRPVYKPRP | -0.516 |
| RRIRWRPPRLPRPRPRPWAMPRP | 0.0321 |
| RRIRWRPPRLPRPRPRPWAQPRP | -0.381 |
| RRIRWRPPRLPRPRPRPWAYPRP | -0.502 |
| RRIRWRPPRLPRPRPRPWDKPRP | -0.0732 |
| RRIRWRPPRLPRPRPRPWGKPRP | 0.0784 |
| RRIRWRPPRLPRPRPRPWHNPRP | -0.203 |
| RRIRWRPPRLPRPRPRPWITPRP | -0.0174 |
| RRIRWRPPRLPRPRPRPWKAPRP | -0.00884 |
| RRIRWRPPRLPRPRPRPWMIPRP | -0.0414 |
| RRIRWRPPRLPRPRPRPWMQPRP | -0.147 |
| RRIRWRPPRLPRPRPRPWNKPRP | 0.087 |
| RRIRWRPPRLPRPRPRPWPFPRP | 0.481 |
| RRIRWRPPRLPRPRPRPWPGPRP | 0.217 |
| RRIRWRPPRLPRPRPRPWPYPRP | -0.0146 |
| RRIRWRPPRLPRPRPRPWSCPRP | -0.169 |
| RRIRWRPPRLPRPRPRPWWQPRP | 0.16 |
| RRIRWRPPRLPRPRPRPWWYPRP | -0.203 |
| RRIRWRPPRLPRPRPRPWYGPRP | -0.34 |
| RRIRWRPPRLPRPRPRPWYQPRP | -0.179 |
| RRIRWRPPRLPRPRPRPYACPRP | -0.355 |
| RRIRWRPPRLPRPRPRPYAGPRP | 0.0399 |
| RRIRWRPPRLPRPRPRPYAQPRP | -0.189 |

| Sequence | shrunken log2 fold change |
| --- | --- |
| RRIRWRPPRLPRPRPRPYDSPRP | -0.377 |
| RRIRWRPPRLPRPRPRPYEIPRP | -0.402 |
| RRIRWRPPRLPRPRPRPYGTPRP | -0.232 |
| RRIRWRPPRLPRPRPRPYHIPRP | -0.96 |
| RRIRWRPPRLPRPRPRPYHKPRP | -0.118 |
| RRIRWRPPRLPRPRPRPYKFPRP | -0.22 |
| RRIRWRPPRLPRPRPRPYKYPRP | -0.977 |
| RRIRWRPPRLPRPRPRPYLPPRP | -0.826 |
| RRIRWRPPRLPRPRPRPYLVPRP | -0.195 |
| RRIRWRPPRLPRPRPRPYNMPRP | -0.883 |
| RRIRWRPPRLPRPRPRPYNSPRP | -0.178 |
| RRIRWRPPRLPRPRPRPYPFPRP | -0.0811 |
| RRIRWRPPRLPRPRPRPYQFPRP | -0.00205 |
| RRIRWRPPRLPRPRPRPYRMPRP | 0.0292 |
| RRIRWRPPRLPRPRPRPYRPPRP | -0.573 |
| RRIRWRPPRLPRPRPRPYTDPRP | 0.102 |
| RRIRWRPPRLPRPRPRPYVDPRP | -0.171 |
| RRIRWRPPRLPRPRPRPYYEPRP | -0.742 |
| RRIRWRPPRLPRPRPRPYYKPRP | -0.823 |
| RRIRWRPPRLPRPRPRPYYVPRP | -0.213 |
| RRIRYRPPRLPRPRPRPACIPRP | -0.389 |
| RRIRYRPPRLPRPRPRPADPPRP | 0.035 |
| RRIRYRPPRLPRPRPRPADSPRP | -0.212 |
| RRIRYRPPRLPRPRPRPAEYPRP | -0.58 |
| RRIRYRPPRLPRPRPRPAFHPRP | -0.518 |
